For two substances, Kd results are on record in paper PMC8012715, “Mechanism of NanR gene repression and allosteric induction of bacterial sialic acid metabolism” (Nature Communications, 2021).

The target in data set [1] is T1, NanR (Escherichia coli K12) (UniProt P0A8W0).
T1 sequence: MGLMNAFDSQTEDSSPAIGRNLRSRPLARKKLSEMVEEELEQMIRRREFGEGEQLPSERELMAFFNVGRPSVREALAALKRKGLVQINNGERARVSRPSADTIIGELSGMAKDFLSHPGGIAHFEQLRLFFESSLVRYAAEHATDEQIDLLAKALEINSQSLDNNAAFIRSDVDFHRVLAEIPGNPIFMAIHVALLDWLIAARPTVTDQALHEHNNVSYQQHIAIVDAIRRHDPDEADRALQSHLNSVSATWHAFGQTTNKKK
Briefly: EMSA. Particulars: 10 nM DNA, EMSA: 10 mM MOPS pH 7.5, 50 mM KCl, 5 mM MgCl2, 10% glycerol, 30 min at room temperature, gel at 4 C, fluorescence AUC: 20 mM Tris-HCl pH 8.0, 150 mM NaCl ….

Data set [2] has as its target T1, NanR (Escherichia coli K12). Briefly: fluorescence-detected AUC. The settings on record: 80 nM DNA, EMSA: 10 mM MOPS pH 7.5, 50 mM KCl, 5 mM MgCl2, 10% glycerol, 30 min at room temperature, gel at 4 C, fluorescence AUC: 20 mM Tris-HCl pH 8.0, 150 mM NaCl …. For orientation: A gel shift assay detects complexes by their altered migration in electrophoresis.

In turn, (GGTATA)2-repeat, FAM showed a Kd in data set [1] (Hill n = 2.8 ± 0.3, two complexes) of 0.025 µM.
Regarding (GGTATA)3-repeat operator, FAM, the Kd in data set [1] (Hill n = 2.0 ± 0.2, apparent KD) came to 0.039 µM; in data set [2] (20 mM Neu5Ac, Hill n = 2.0 ± 0.6), 0.578 µM; in data set [2] (Hill n = 1.9 ± 0.2, no Neu5Ac), 0.02 µM.
